Biological target: the molecule itself
Assay: X-ray crystals of CodY grown with GTP, with isoleucine and valine, or without effectors

B1: Bacillus subtilis CodY protein (other, UniProt P39779 2-259, looked up)
chain: ALLQKTRIINSMLQAAAGKPVNFKEMAETLRDVIDSNIFVVSRRGKLLGYSINQQIENDRMKKMLEDRQFPEEYTKNLFNVPETSSNLDINSEYTAFPVENRDLFQAGLTTIVPIIGGGERLGTLILSRLQDQFNDDDLILAEYGATVVGMEILREKAEEIEEEARSKAVVQMAISSLSYSELEAIEHIFEELDGNEGLLVASKIADRVGITRSVIVNALRKLESAGVIESRSLGMKGTYIKVLNNKFLIELENLKSH
notes: For crystallization, B. subtilis CodY was overproduced in E. coli with a C-terminal or an N-terminal 6xHis tag; also called purified CodY protein
**Q.** Does B1 bind?
**A.** binds

From US8202695 (TUFTS UNIVERSITY, dated 2012)
